In the supplement of paper PMC9170038:

Key:
[1] = test system: MS2 coat protein; test: apparent KD of MS2 coat protein, switch ON state; designed switch direction (-1 OFF switch, 1 ON switch): 1; higher = weaker reporter binding; details: FMN input: 0 or 200 uM; Eterna round: R93 (includes R88 designs)
Summary of the method: (§1)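 Titrations with SNAP-549-labelled MS2 coat protein ran in twofold steps from 0.7 or 1.5 nM to 3 µM, each step taking 0.8–1.5 h at the start and 10–20 min toward the end. The targets were designed RNA switches transcribed on-chip from Illumina sequencing clusters, held in 100 mM Tris-HCl pH 7.5, 80 mM KCl, 4 mM MgCl2, without or with constant ligand. Apparent KD was taken per design as the median of normalised cluster binding-curve fits.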

[2] = test system: MS2 coat protein; test: apparent KD of MS2 coat protein, switch OFF state (with FMN for OFF switches, without FMN for ON switches); designed switch direction (-1 OFF switch, 1 ON switch): 1; higher = weaker reporter binding; details: FMN input: 0 or 200 uM; Eterna round: R93 (includes R88 designs)
Summary of the method: as §1

GAAAAACAUGAGGAUCACCCAUGUGAGAUAAACACAGGAUAUGCGAAAAGAAACAAAUAAGCAGAAGGGUGAAAAG [Mat - Same State 1 - Tesla mod - 81]
apparent KD of MS2 coat protein [1]: 44.1 nM | apparent KD of MS2 coat protein [2]: 282 nM

CGGAGACAUGAGGAUCACCCAUGUGAGAAGAGGCGAGGAUAUCGAAAGAAAGAAGAGAAACGAGAAGGCGCGAGCG [salish99-SS1-076]
apparent KD of MS2 coat protein [1]: 32.8 nM | apparent KD of MS2 coat protein [2]: 42.4 nM

AACAGACAUGAGGAUCACCCAUGUAGAAUUAUGGGAGGAUAUACAAAGACGAGAGUCAGAGUAGAAGGCCUAGGAU [salish99-ss1-166]
apparent KD of MS2 coat protein [1]: 22.8 nM | apparent KD of MS2 coat protein [2]: 63.4 nM

AAAUUACAUGAGGAUCACCCAUGUUUAAAAAAUAUAGGAUAUGUAAAAAAAAAAAAAAAAACAGAAGGGUAAAAAA [I 'NO' this state well]
apparent KD of MS2 coat protein [1]: 25.1 nM | apparent KD of MS2 coat protein [2]: 25.4 nM

AAAAAACAUGAGGAUCACCCAUGUAAAAAAAACACAGGAUAUCCCUUUUAAAAAAAAAAAGGAGAAGGGUGAAAAA [Nob's Hobby 5 - Jieux - Same State 1]
apparent KD of MS2 coat protein [1]: 16.1 nM | apparent KD of MS2 coat protein [2]: 29.9 nM

GAAGACAUAGUUCAGGAUAUAGGAAUAGUCACAUGAGGAUCACCCAUGUGCAUUUAUAUGCGCGCUUAGAAGGGAGGUAGAUAUA [SameState2 Malc#20]
apparent KD of MS2 coat protein [1]: 23.8 nM | apparent KD of MS2 coat protein [2]: 20.8 nM

UAUCAUUACACGAAGGAUAUCGAAAAAAGAACAUGAGGAUCACCCAUGUAAAAUAAAACACAGAACGAGAAGGUCGAGGGUGAAG [JR_SS002_Sub701]
apparent KD of MS2 coat protein [1]: 15.8 nM | apparent KD of MS2 coat protein [2]: 34.2 nM

AUAAAACAUGAGGAUCACCCAUGUAGACAUAUGGGAGGAUAUACUAGAUCGAAAGAUCUAGUAGAAGGCCUUUAUA [JL Mod of Eli 8]
apparent KD of MS2 coat protein [1]: 19.2 nM | apparent KD of MS2 coat protein [2]: 54.2 nM

AAGAUACAUGAGGAUCACCCAUGUUAAGAGAGAUGAGGAUAUCCGAAUUAAUUAAAUUAAGGAGAAGGCAUGAAAA [LROPPY Same State 1 - v02_deltaG=2.1]
apparent KD of MS2 coat protein [1]: 18.2 nM | apparent KD of MS2 coat protein [2]: 26.9 nM

AUUAGACAUGAGGAUCACCCAUGUAGGCAGUCAUGAGGAUAUGGACAAGGUGCUCAAGGUCCAGAAGGCAUACGCC [Maxeus]
apparent KD of MS2 coat protein [1]: 14.8 nM | apparent KD of MS2 coat protein [2]: 57.6 nM

AGGAAACAUGAGGAUCACCCAUGUAAAAGGUGGGUAGGAUAUGCGAAAAGAAAAAGAAAAGCAGAAGGGCCAAGAA [something completely different]
apparent KD of MS2 coat protein [1]: 41.9 nM | apparent KD of MS2 coat protein [2]: 133 nM

AGGAAACAUGAGGAUCACCCAUGUAAAAAUAUGGGAGGAUAUGGAAACACGAAAGUGAAACCAGAAGGCCCGAAAA [77%, Mat - Mod of Eli, 18]
apparent KD of MS2 coat protein [1]: 17.1 nM | apparent KD of MS2 coat protein [2]: 23.9 nM

AAUAAACAUGAGGAUCACCCAUGUCGGUAAAGUCAAGGAUAUGGGACUGGGAUUAAAGUGCCAGAAGGUGAAAAUA [Raxela]
apparent KD of MS2 coat protein [1]: 122 nM | apparent KD of MS2 coat protein [2]: 351 nM

GAGCCGCGGGCACAGGAUAUGCUCGGGCAAACAUGAGGAUCACCCAUGUGCGGCCUAAAUACGACGCAGAAGGGUGCUGGUGUGU [Orxeis]
apparent KD of MS2 coat protein [1]: 44 nM | apparent KD of MS2 coat protein [2]: 147 nM

CUGGAACAUGAGGAUCACCCAUGUCACAGAAACUGAGGAUAUGGGCGCUAACAAGCAUGACCAGAAGGCAGACACG [Mamaes]
apparent KD of MS2 coat protein [1]: 18 nM | apparent KD of MS2 coat protein [2]: 27.2 nM

CGAGAACAUGAGGAUCACCCAUGUAAUGAAUGGUCAGGAUAUGGAGAUAGAUGACAAGCGCCAGAAGGGACAUCAG [JR_SS001_Sub1001]
apparent KD of MS2 coat protein [1]: 42.9 nM | apparent KD of MS2 coat protein [2]: 53.9 nM

GAAAAACAUGAGGAUCACCCAUGUAGAAAUAUGGGAGGAUAUUCAAAGACGAAAGUCAAAGAAGAAGGCCUAAAAG [Mat - Same State 1 - Eli mod - 36]
apparent KD of MS2 coat protein [1]: 29.1 nM | apparent KD of MS2 coat protein [2]: 113 nM

UACAGGAAGAGAGAGGAUAUCCAAAGGAAAACAUGAGGAUCACCCAUGUAAAAGGUAGGAAAUUGGGAGAAGGCUCAAGAGAGAG [salish99-ss2-090]
apparent KD of MS2 coat protein [1]: 21 nM | apparent KD of MS2 coat protein [2]: 32 nM

AGAAAACAUGAGGAUCACCCAUGUCAAAUAAGUCAAGGAUAUGGGACUCCGCGAGAGUCGCCAGAAGGUGAGAAAA [Aatrara]
apparent KD of MS2 coat protein [1]: 17.5 nM | apparent KD of MS2 coat protein [2]: 49.5 nM

GAUAAACAUGAGGAUCACCCAUGUAGAAAUAUGGGAGGAUAUACAAAGACGAUAGUCAAAGUAGAAGGCCUAAAAG [77%, Mat - Mod of Eli - With 2 more U's]
apparent KD of MS2 coat protein [1]: 24.8 nM | apparent KD of MS2 coat protein [2]: 85.9 nM

AUAUGACAUGAGGAUCACCCAUGUAUUCGAGCAUGAGGAUAUAUGACUAGUCAUAGGAGGAUAGAAGGCAUGGUUG [JR_SS001_Sub1217]
apparent KD of MS2 coat protein [1]: 76.2 nM | apparent KD of MS2 coat protein [2]: 169 nM

CGCGAACAUGAGGAUCACCCAUGUGAAAAACAUAGAGGAUAUGUCGCAUGCGUGUAAAAGACAGAAGGCUAUCGCG [Normal (21/22)]
apparent KD of MS2 coat protein [1]: 22.8 nM | apparent KD of MS2 coat protein [2]: 72.5 nM

AGAAAUAAACCUCAGGAUAUGGGUAAGAAAACAUGAGGAUCACCCAUGUAAAAGAAAAUAAAAAACCAGAAGGGAGAAAAUAAAG [Reversing G segment in JL's winner (80%) Variant 2]
apparent KD of MS2 coat protein [1]: 31.3 nM | apparent KD of MS2 coat protein [2]: 41.3 nM

AUAAAUAAUGGUAAGGAUAUCCAAAAGAAAACAUGAGGAUCACCCAUGUAAAAGAAAAUAGUGUGGGAGAAGGUACCAUAUAAAU [SS2 M 15]
apparent KD of MS2 coat protein [1]: 18.6 nM | apparent KD of MS2 coat protein [2]: 41.6 nM

AAAUAAAAAAAAGAGGAUAUUCAUGUGAAAACAUGAGGAUCACCCAUGUAAAAAAAUAAAAAUAAAAAGAAGGAAAAAUAAAAAA [SS2: 83 No MS2]
apparent KD of MS2 coat protein [1]: 23.6 nM | apparent KD of MS2 coat protein [2]: 25.1 nM

AUAACACAUGAGGAUCACCCAUGUAGAAACAAGUCAGGAUAUGCGACCUCAUGAAAUAAAGCAGAAGGGACACUAA [SS 1 Tesla 5]
apparent KD of MS2 coat protein [1]: 31.5 nM | apparent KD of MS2 coat protein [2]: 150 nM

UAAAAAAAAAGGCAGGAUAUCCAAAAUAAAACAUGAGGAUCACCCAUGUAAAAAAAAAAAAAAUGGGAGAAGGGCCAAAAAAAAU [Mat - Same State 2 - Mod - 159]
apparent KD of MS2 coat protein [1]: 14 nM | apparent KD of MS2 coat protein [2]: 27 nM

AAUACACAUGGUCAGGAUAUCGCAGCUAGGACAUGAGGAUCACCCAUGUCGUACGUAAAAGUAAAUGAGAAGGGACAGGGUGACC [JR_SS002_Sub407]
apparent KD of MS2 coat protein [1]: 37.8 nM | apparent KD of MS2 coat protein [2]: 30 nM

UUUAAUUACACGAAGGAUAUCGAUUUUCAGACAUGAGGAUCACCCAUGUAGUAGAUUUCCCUGUUCGAGAAGGUCGCGGGUGAAC [JR_SS002_Sub602]
apparent KD of MS2 coat protein [1]: 39.3 nM | apparent KD of MS2 coat protein [2]: 30.3 nM

AAAAAACAUGAGGAUCACCCAUGUAAAAAAAUGGGAGGAUAUACAAAAACGAAAAAAAAAGUAGAAGGCCUGAAAA [same state 8]
apparent KD of MS2 coat protein [1]: 57.4 nM | apparent KD of MS2 coat protein [2]: 162 nM

AAAGACACAGUGCAGGAUAUGGUAAUAGUCACAUGAGGAUCACCCAUGUUCUUUUAUAAGAACGAUCAGAAGGGCGGUGAAAAAA [SameState2 Malc#12]
apparent KD of MS2 coat protein [1]: 111 nM | apparent KD of MS2 coat protein [2]: 295 nM

AGAAAACAUGAGGAUCACCCAUGUGAUAAUAUGGGAGGAUAUACGAAGACGAAAGUCGACGUAGAAGGCCUAAAGA [Garnet 48]
apparent KD of MS2 coat protein [1]: 35.3 nM | apparent KD of MS2 coat protein [2]: 70.8 nM

CAUCAACAUGAGGAUCACCCAUGUCAUUGAUGUCAAGGAUAUGGGAGACAUAAAAUUCUUCUAGAAGGUGAAAGAU [Mainuson]
apparent KD of MS2 coat protein [1]: 636 nM | apparent KD of MS2 coat protein [2]: 176 nM
